Common to all, as to assay: AUC; sedimentation velocity, 40,000 rpm, 25°C, 2 mg/ml, 10 mM Tris, ~pH 7.0; c(s) model (SEDFIT)
For assay [1], the target named is Amel-C (amelogenin C-terminal fragment, AA 86-180) (mouse).
Assay [2] has as its target full-length recombinant mouse amelogenin (M180) (mouse).
Assay [3] shares this target. This is another data set of the same source.

“And” between values parts separate entries of the source, which are not always exact repeats. Equal entries are not always repeated. Where two headings read alike, the source gives them in different places.

For orientation: stoichiometry N means the number of molecules, sites or subunits per partner or assembly.

On to “Amel-C (amelogenin C-terminal fragment, AA 86-180) (domain or fragment)”, for which, in assay [1], the percent as larger aggregations turned out to be 2%; the percent as tetramers worked out at 7.5%; the stoichiometry N was 4 and 6.

As to “full-length recombinant mouse amelogenin (M180) (natural protein)”, the stoichiometry N was found to be 40 in assay [2] and 50 in assay [3].

(Values after paper PMC3184955.)
